From IntAct's records for PubMed 28424519 come the findings set out here.

B1: Transcription regulatory protein SNF2 (Saccharomyces cerevisiae), P22082 (parent)
chain: MNIPQRQFSNEEVNRCYLRWQHLRNEHGMNAPSVPEFIYLTKVLQFAAKQRQELQMQRQQQGISGSQQNIVPNSSDQAELPNNASSHISASASPHLAPNMQLNGNETFSTSAHQSPIMQTQMPLNSNGGNNMLPQRQSSVGSLNATNFSPTPANNGENAAEKPDNSNHNNLNLNNSELQPQNRSLQEHNIQDSNVMPGSQINSPMPQQAQMQQAQFQAQQAQQAQQAQQAQQAQARLQQGRRLPMTMFTAEQSELLKAQITSLKCLVNRKPIPFEFQAVIQKSINHPPDFKRMLLSLSEFARRRQPTDQNNQSNLNGGNNTQQPGTNSHYNNTNTDNVSGLTRNAPLDSKDENFASVSPAGPSSVHNAKNGTLDKNSQTVSGTPITQTESKKEENETISNVAKTAPNSNKTHTEQNNPPKPQKPVPLNVLQDQYKEGIKVVDIDDPDMMVDSFTMPNISHSNIDYQTLLANSDHAKFTIEPGVLPVGIDTHTATDIYQTLIALNLDTTVNDCLDKLLNDECTESTRENALYDYYALQLLPLQKAVRGHVLQFEWHQNSLLTNTHPNFLSKIRNINVQDALLTNQLYKNHELLKLERKKTEAVARLKSMNKSAINQYNRRQDKKNKRLKFGHRLIATHTNLERDEQKRAEKKAKERLQALKANDEEAYIKLLDQTKDTRITHLLRQTNAFLDSLTRAVKDQQKYTKEMIDSHIKEASEEVDDLSMVPKMKDEEYDDDDDNSNVDYYNVAHRIKEDIKKQPSILVGGTLKDYQIKGLQWMVSLFNNHLNGILADEMGLGKTIQTISLLTYLYEMKNIRGPYLVIVPLSTLSNWSSEFAKWAPTLRTISFKGSPNERKAKQAKIRAGEFDVVLTTFEYIIKERALLSKVKWVHMIIDEGHRMKNAQSKLSLTLNTHYHADYRLILTGTPLQNNLPELWALLNFVLPKIFNSVKSFDEWFNTPFANTGGQDKIELSEEETLLVIRRLHKVLRPFLLRRLKKDVEKELPDKVEKVVKCKMSALQQIMYQQMLKYRRLFIGDQNNKKMVGLRGFNNQIMQLKKICNHPFVFEEVEDQINPTRETNDDIWRVAGKFELLDRILPKLKATGHRVLIFFQMTQIMDIMEDFLRYINIKYLRLDGHTKSDERSELLRLFNAPDSEYLCFILSTRAGGLGLNLQTADTVIIFDTDWNPHQDLQAQDRAHRIGQKNEVRILRLITTNSVEEVILERAYKKLDIDGKVIQAGKFDNKSTSEEQEALLRSLLDAEEERRKKRESGVEEEEELKDSEINEILARNDEEMAVLTRMDEDRSKKEEELGVKSRLLEKSELPDIYSRDIGAELKREESESAAVYNGRGARERKTATYNDNMSEEQWLRQFEVSDDEKNDKQARKQRTKKEDKSEAIDGNGEIKGENIDADNDGPRINNISAEDRADTDLAMNDDDFLSKKRKAGRPRGRPKKVKLEGSENSEPPALESSPVTGDNSPSEDFMDIPKPRTAGKTSVKSARTSTRGRGRGRGRGRGRGRGRGRPPKARNGLDYVRTPAAATSPIDIREKVAKQALDLYHFALNYENEAGRKLSDIFLSKPSKALYPDYYMIIKYPVAFDNINTHIETLAYNSLKETLQDFHLIFSNARIYNTEGSVVYEDSLELEKVVTKKYCEIMGDNSQLDFTEFDEQYGTRPLVLPPVVTSSVAESFTDEADSSMTEASV

Variants of B1 are the subject of the assay. The following applies: with h4_yeast HHF1, P02309.
As for E1069K;D1121K, the “effect of a mutation on the interaction” value is reported as “disrupting interaction”.
